Assay [1] addresses GLP-1R expressed on CRE-Luc/GLP-1R HEK293 cells.
The target of the next assay is T1, hFcRn&b2M protein (human, UniProt P61769 21-119, limits assumed).
T1 construct: also called hFcRn&β2M; human FcRn protein
The experiment in a line: binding affinity to hFcRn & b2M at pH 6.0, method not named; pH 6.0; soluble hFcRn & b2M as ligand.

Results on two molecules are retold here after patent publication US20190023785A1 (SHANGHAI JIAOTONG UNIVERSITY, published 2019).

T1 sequence (chain, as listed by the source limits assumed, chain 1 of 2): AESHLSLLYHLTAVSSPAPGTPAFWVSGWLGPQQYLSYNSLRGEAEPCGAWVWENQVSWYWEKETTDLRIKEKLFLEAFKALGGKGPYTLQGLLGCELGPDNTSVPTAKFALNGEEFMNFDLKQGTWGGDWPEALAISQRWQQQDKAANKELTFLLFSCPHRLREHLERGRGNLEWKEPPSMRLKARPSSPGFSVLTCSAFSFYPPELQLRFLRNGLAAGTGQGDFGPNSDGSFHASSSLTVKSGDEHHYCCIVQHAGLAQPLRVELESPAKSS
T1 sequence (P61769 21-119 limits assumed, chain 2 of 2): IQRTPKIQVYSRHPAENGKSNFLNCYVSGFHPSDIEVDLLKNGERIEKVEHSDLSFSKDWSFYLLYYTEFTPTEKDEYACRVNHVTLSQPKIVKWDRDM

Regarding GLP-1 (peptide), the EC50, relative luciferase activity in CRE-Luc/GLP-1R HEK293 reporter cells in assay [1] stood at 3.89 nM.

B1: FnAb12 single chain antibody (scFv)
scFv: DIQLTQSPSSLSASVGDRVTLTCQATQDIDNNLNWYQQKPGKAPKLLIYDASNLETGVPSRFSGSGSGTDFTFTISDLQPEDVATYYCQQYYNLPLTFGGGTKVDIKRSRGGGGSGGGGSGGGGSLEMAEVQLVQSGAEVKKPGASVKVSCKASGYTFTSYDINWVRQATGQGLEWMGWMNPNSGNTGYAQKFQGRVTMTRNTSISTAYMELSSLRSEDTAVYYCARGVDLGDGWGQGTLVTVSS
notes: Single chain antibody from a phage library
B1: the Kd in the assay with hFcRn&b2M protein was determined as 15 nM.
